Measurements reported in patent publication US4770993A, “Hybridoma tumor cell lines and their monoclonal antibodies to thaumatin” (Beatrice Companies, Inc., priority 1985, dated 1988).
Substitutions are numbered along the chain they refer to.

Key:
[1] = system: monoclonal antibody of clone No. 29; assay: Competition assay between native plant thaumatin I and monellin, clone No. 29 antibody; assay type: binding, mouse
[2] = cited from earlier work; for taste responses: in words
[3] = system: clone No. 3 monoclonal antibodies; assay: Competition ELISA, inhibition of binding of clone No. 3 monoclonal antibodies to native plant thaumatin I; design: species or system mouse
Protocol: (§1) The following procedure is utilized to carry out enzyme linked immunosorbance assays (ELISA) for thaumatin. All reactions are carried out at room temperature and the ELISA plate is covered with Saran brand plastic wrap at all stages and is incubated within a humidified chamber. ELISA plates are coated by placing 10 ng of thaumatin I purified according to the procedure of example 1 in 50 μl of 25 mM NaHCO3 (pH 9.2). This is incubated at room temperature for 2 hours. The plates are washed twice with 400 μl of PBS (50 mM potassium phosphate, 150 mM NaCl, (pH 7.4) and Tween 20 (0.05%)) (a detergent manufactured by Sigma Chemical Co.) and then twice with 400 μl water. The plates are then coated with 200 μl of 1% bovine serum albumin (BSA) in PBS-Tween 20 (0.025% solution) for 2 hours at room temperature. The plates are again washed twice with 400 μl of the PBS-Tween solution and twice with water.
(§2) Fifty μl of media from the culture to be tested is then added. Normal, unfused myeloma cell (Sp2-0/Ag-14) media is used as the negative control. Mouse serum at a dilution of 1:500 or greater is used as a positive control. The media is then incubated for at least four hours at room temperature. The plates are then again washed twice with 400 μl of PBS-Tween 20 solution and then twice with water. Fifty μl of a 1:100 dilution of rabbit anti-mouse light K and λ chain immunoglobulin is added and this is incubated for 2 hours at room temperature. The plates are again washed twice with 400 μl of 0.5% PBS-Tween 20 solution and twice with water. Fifty μl of conjugated goat anti-rabbit IgG peroxidase at a 1:1000 dilution is then added and incubated for 1 hour at room temperature. The plates are once more washed twice with 400 μl PBS-Tween 20 solution and twice with water.
(§3) Fifty μl of O-phenylenediamine dihydrochloride (OPD) solution containing 0.01% of H2 O2 is added to each well (OPD solution comprises 18 mg of OPD per 30 ml of staining buffer which itself comprises 4.86 ml of 0.5 M citric acid and 10.28 ml of 0.5 M Na2 HPO4 diluted up to 100 ml with water). The H2 O2 should be added to the OPD only seconds before application. This mixture is then incubated for 5-15 minutes at room temperature until the reaction is stopped by addition of 50 μl of 4N H2 SO4. The optical density of the wells is then measured at 490 nm by a Bio-Tek ELISA reader.
(§4) In this example, the inhibition effect of recombinant yeast produced thaumatin analogue-glutathione adduct and of performic acid oxidized plant thaumatin on binding of clone No. 3 monoclonal antibodies to native plant thaumatin I was evaluated. ELISA plates were coated with 10 ng of native plant thaumatin I per well. The antibodies were preincubated with control buffer or with various amounts of test materials for 2 hours and were added to the plates. The plates were then developed according to the ELISA procedure of Example 3.

[4] = in words; cited from earlier work
[5] = system: clone No. 29 monoclonal antibodies; assay: Competition ELISA, inhibition of binding of clone No. 29 monoclonal antibodies to native plant thaumatin I; design: species or system mouse
Protocol: as §1
as §2, with “Mouse serum at a dilution of 1:500 or greater is used as a positive control.” left out
as §3
as §4, with “this example” for “this example, the”, “oxidized” for “oxidized plant”, “No. 29” for “No. 3”

## Monellin
[1]; amount of protein 10 ng
  Inhibition (%): not detectable
[1]; amount of protein 50 ng
  Inhibition (%): not detectable
[1]; amount of protein 100 ng
  Inhibition (%): not detectable
[1]; amount of protein 1 μg
  Inhibition (%): 15%
[1]; amount of protein 10 μg
  Inhibition (%): 60%
[1]; amount of protein 100 μg
  Inhibition (%): 98%
[1]; monellin versus thaumatin
  concentration inhibiting binding relative to thaumatin: ten fold greater

B1: Thaumatin I: plant thaumatin I (obtained from Sigma Chemical Co.), sweet-tasting protein of Thaumatococcus daniellii, purified on an ion exchange column (protein, UniProt P02883 23-229, looked up)
Thaumatin I: ATFEIVNRCSYTVWAAASKGDAALDAGGRQLNSGESWTINVEPGTNGGKIWARTDCYFDDSGSGICKTGDCGGLLRCKRFGRPPTTLAEFSLNQYGKDYIDISNIKGFNVPMDFSPTTRGCRGVRCAADIVGQCPAKLKAPGGGCNDACTVFQTSEYCCTTGKCGPTEYSRFFKRLCPDAFSYVLDKPTTVTCPGSSNYRVTFCPTA
[1]; amount of protein 10 ng
  Inhibition (%): not detectable
[1]; amount of protein 50 ng
  Inhibition (%): not detectable
[1]; amount of protein 100 ng
  Inhibition (%): 25%
[1]; amount of protein 1 μg
  Inhibition (%): 62.5%
[1]; amount of protein 10 μg
  Inhibition (%): 94%
[1]; amount of protein 100 μg
  Inhibition (%): 95%
[2]
  taste responses: elicit profound taste responses
[2]; on a weight basis
  sweetness relative to sucrose: about 5000 times sweeter than sucrose
[3]; addition 100 ng
  Inhibition of Binding (%): 16%
[3]; addition 200 ng
  Inhibition of Binding (%): 30%
[3]; addition 500 ng
  Inhibition of Binding (%): 50%
[3]; addition 1 μg
  Inhibition of Binding (%): 60%
[3]; addition 2 μg
  Inhibition of Binding (%): 80%
[4]
  cariogenicity: non-cariogenic
  toxicity: non-toxic
[5]; addition 100 ng
  Inhibition of Binding (%): 5%
[5]; addition 200 ng
  Inhibition of Binding (%): 30%
[5]; addition 500 ng
  Inhibition of Binding (%): 51%
[5]; addition 1 μg
  Inhibition of Binding (%): 65%
[5]; addition 2 μg
  Inhibition of Binding (%): 80%

B2: Thaumatin II: plant thaumatin II, sweet-tasting protein of Thaumatococcus daniellii (protein, UniProt P02884 23-229, looked up)
Thaumatin II: B1 Thaumatin I with N46K, S63R, K67R, R76Q
[2]
  taste responses: elicit profound taste responses
[4]
  cariogenicity: non-cariogenic
  toxicity: non-toxic

B3: Performic acid oxidized thaumatin: denatured thaumatin I prepared by incubation of thaumatin I in a chilled performic acid solution (protein, UniProt P02883 23-229, looked up)
Thaumatin I: B1 Thaumatin I
modifications: performic acid oxidized
notes: denatured thaumatin I prepared by incubation of thaumatin I in a chilled performic acid solution
[3]; addition 100 ng
  Inhibition of Binding (%): 0%
[3]; addition 200 ng
  Inhibition of Binding (%): 0%
[3]; addition 500 ng
  Inhibition of Binding (%): 0%
[3]; addition 1 μg
  Inhibition of Binding (%): 0%
[3]; addition 2 μg
  Inhibition of Binding (%): 6%
[3]; preincubation with clone No. 3 antibody, in words
  inhibition in the assay: little or no inhibition
[5]; addition 100 ng
  Inhibition of Binding (%): 8%
[5]; addition 200 ng
  Inhibition of Binding (%): 29.5%
[5]; addition 500 ng
  Inhibition of Binding (%): 49%
[5]; addition 1 μg
  Inhibition of Binding (%): 64%
[5]; addition 2 μg
  Inhibition of Binding (%): 82%
[5]; in words
  competition with native plant thaumatin I for clone No. 29 antibody: compete effectively
